Positions count from the first letter of the chain named. One block for each binder: values may come before it.
Assays:
[1] = target: T1, human TIGIT over-expressed on cells (human, UniProt Q495A1 22-244); test: FACS, CHO-K1 cells over-expressing human TIGIT
T1 construct: also called CHO-K1/human TIGIT cells; CHO cells expressing human TIGIT
T1 sequence: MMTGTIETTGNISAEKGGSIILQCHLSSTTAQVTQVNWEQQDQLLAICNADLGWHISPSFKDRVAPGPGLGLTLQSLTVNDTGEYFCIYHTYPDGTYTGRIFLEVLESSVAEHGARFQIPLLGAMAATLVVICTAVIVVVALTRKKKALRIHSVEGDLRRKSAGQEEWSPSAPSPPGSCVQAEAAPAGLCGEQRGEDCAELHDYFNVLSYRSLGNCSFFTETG
Experimental: (§1) Binding affinities of the chimeric anti-human TIGIT monoclonal antibodies and the humanized anti-human TIGIT monoclonal antibodies to human or cynomolgus TIGIT over-expressed on CHO-K1 cells were determined using a fluorescence-activated cell sorting (FACS)-based assay. […] The mixture was equilibrated for 30 minutes at room temperature and washed three times with FACS buffer (PBS containing 1% BSA). iFluor labeled goat anti-mouse IgG as the secondary antibody was added and incubated at room temperature for 45 min. Finally, the cells were washed 3 time with PBS, and the signal was read by FACS BD Calibur. Data was analyzed with PRISM™ (GraphPad Software, San Diego, Calif.) using non-linear regression and EC₅₀ values were calculated.

[2] = target: T1, human TIGIT over-expressed on cells; test: cell-based or functional assay
[3] = target: T2, Human TIGIT protein with HIS tag (human, UniProt Q495A1 22-141); test: SPR Biacore T200; antibody Fc-captured, TIGIT-His analyte
T2 construct: A soluble analyte is probably only the extracellular part; also called human TIGIT recombinant protein; not shown: HIS tag
T2 sequence: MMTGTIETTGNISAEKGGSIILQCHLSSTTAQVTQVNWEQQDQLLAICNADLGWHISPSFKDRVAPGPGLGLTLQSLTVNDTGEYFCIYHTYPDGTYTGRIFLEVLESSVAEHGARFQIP
Experimental: Binding kinetics of the chimeric anti-human TIGIT monoclonal antibodies and the humanized anti-human TIGIT monoclonal antibodies to human TIGIT were determined using a Surface Plasmon Resonance (SPR) biosensor, BIACORE® T200 (GE Healthcare). Different concentrations of the chimeric anti-human TIGIT monoclonal antibodies or humanized anti-human TIGIT monoclonal antibodies were prepared starting at 50 nM with a 3-fold serial dilution. Each chimeric anti-human TIGIT monoclonal antibody or each humanized anti-human TIGIT monoclonal antibody was immobilized on the sensor chip through the Fc capture method. Human TIGIT protein with a HIS tag was used as the analyte. The dissociation (kd) and association (kₐ) rate constants were obtained using the BIACORE® T200 evaluation software. The apparent equilibrium dissociation constants (KD) were calculated from the ratio of kd over kₐ.

[4] = target: T1, human TIGIT over-expressed on cells; test: competition FACS, CHO cells expressing human TIGIT; competitor PVR recombinant protein
Experimental: (§2) To assess the competitive binding on human TIGIT between the chimeric anti-human TIGIT monoclonal antibodies or the humanized anti-human TIGIT monoclonal antibodies and PVR, the chimeric anti-human TIGIT monoclonal antibody or the humanized anti-human TIGIT monoclonal antibody samples were prepared (starting at 300 nM, ≤3-fold serial dilution with 10 concentrations). CHO cells expressing human TIGIT were dissociated from adherent culture flasks and mixed with varying concentrations of each chimeric anti-human TIGIT monoclonal antibody or the humanized anti-human TIGIT monoclonal antibody and 5 μg/ml […] fusion protein having a biotin label. The mixture was equilibrated for 30 minutes at room temperature and washed three times with FACS buffer (PBS containing 1% BSA). PE/Cy5 Streptavidin secondary antibody was then added to the mixtures and incubated for 15 minutes at room temperature. Subsequently, the cells were washed with FACS buffer and analyzed by flow cytometry. Data was analyzed with PRISM™ (GraphPad Software, San Diego, Calif.) using non-linear regression, and IC₅₀ values were calculated (FIG. 7 and Table 13).

[5] = target: T3, cynomolgus TIGIT over-expressed on CHO-K1 cells (cynomolgus, UniProt A0A7N9I9V4 89-312); test: FACS, CHO-K1 cells over-expressing cynomolgus TIGIT
T3 construct: whole, on cells; also called CHO-K1/cynomolgus TIGIT cells
T3 sequence (A0A7N9I9V4 entry or part of it): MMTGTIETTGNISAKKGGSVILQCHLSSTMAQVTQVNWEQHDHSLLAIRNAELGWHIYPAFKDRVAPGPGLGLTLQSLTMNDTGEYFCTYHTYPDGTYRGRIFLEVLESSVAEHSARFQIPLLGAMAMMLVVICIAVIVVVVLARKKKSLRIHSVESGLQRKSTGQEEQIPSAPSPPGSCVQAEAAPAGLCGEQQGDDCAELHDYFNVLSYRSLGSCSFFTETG
Experimental: as §1

[6] = target: T1, human TIGIT over-expressed on cells; test: competition FACS, CHO cells expressing human TIGIT; competitor PVR recombinant protein (column headed EC50, text says IC50)
Experimental: as §2

B1: 64G1E9B4 chimeric (antibody, V domains shown)
VH: EVQLQQSGPELVKPGASVKISCKTSGYTFTEHVIHWVKQSHGKSLEWIGGFNPNHDGTIYNQIFRGKATLTVDKSSSTAYMELRSLTSEDSAVYFCTRAAKLLFAMDYWGQGTSVTVSS
VL: DIVMTQSHKFMSTSIGDRVSITCKASQHVSNAVVWYQQKPGQSPKLLIYSPSYRFTGVPDRFTGSGSGTDFTFTISSVQAEDLAVYYCQQHYSTPWTFGGGTKLEIK
notes: also called 64G1 Chimeric
Bottom (best-fit) [1]: 3600
EC50 [1]: 0.47 nM
Top (best-fit) [1]: 23400
IL-2 secretion in T cell activation, Bottom (best-fit) [2]: 204
IL-2 secretion in T cell activation, EC50 [2]: 0.66 nM
IL-2 secretion in T cell activation, Top (best-fit) [2]: 462
Kd [3]: 0.07 nM
koff [3]: 6.4e-05 s⁻¹
kon [3]: 910000 M⁻¹ s⁻¹
Bottom (best-fit) [4]: 197
Top (best-fit) [4]: 772
Bottom (best-fit) [5]: 3920
EC50 [5]: 1.33 nM
Top (best-fit) [5]: 25600
IC50 [6]: 0.51 nM

B3: 64G1E9B4VH1_VL1.M1 (antibody, human IgG1, V domains shown)
VH: EVQLVQSGAEVKKPGSSVKVSCKASGYTFTEHVIHWVRQAPGQGLEWMGGFNPNHDGTIYNQIFRGRVTITADKSTSTAYMELSSLRSEDTAVYYCARAAKLLFAMDYWGQGTTVTVSS
VL: DIQMTQSPSSLSASVGDRVTITCRASQHVSNAVVWYQQKPGKAPKLLIYSPSYRFTGVPSRFSGSGSGTDFTLTISSLQPEDFATYYCQQHYSTPWTFGGGTKVEIK
notes: Humanized antibody, variable domains fused with the constant region of human IgG1; also called 64G1VH1_VL1.M1
Bottom (best-fit) [1]: 3190
EC50 [1]: 0.89 nM
Top (best-fit) [1]: 22900
IL-2 secretion in T cell activation, Bottom (best-fit) [2]: 182
IL-2 secretion in T cell activation, EC50 [2]: 1.27 nM
IL-2 secretion in T cell activation, Top (best-fit) [2]: 508
Kd [3]: 0.15 nM
koff [3]: 8.8e-05 s⁻¹
kon [3]: 590000 M⁻¹ s⁻¹
Bottom (best-fit) [4]: 139
Top (best-fit) [4]: 820
Bottom (best-fit) [5]: 3010
EC50 [5]: 1.65 nM
Top (best-fit) [5]: 24700
IC50 [6]: 0.79 nM

B5: 100C4E7D11VH1_VL1 (antibody, V domains shown)
VH: EVQLVESGGGLVKPGGSLRLSCAASGFTFSFYTMSWVRQAPGKGLEWVSTISSGGGSTYYSDSVKGRFTISRDNAKNSLYLQMNSLRAEDTAVYYCARSLPVDYWGQGTTVTVSS
VL: EIVLTQSPGTLSLSPGERATLSCTASSSVSSTYLHWYQQKPGQAPRLLIYSTSNLASGIPDRFSGSGSGTDFTLTISRLEPEDFAVYYCHLYHHSPYTFGGGTKVEIK
notes: Humanized antibody, variable domains fused with the constant region of human IgG1; also called 100C4VH1_VL1
Bottom (best-fit) [1]: 4110
EC50 [1]: 1.15 nM
Top (best-fit) [1]: 25200
IL-2 secretion in T cell activation, Bottom (best-fit) [2]: 217
IL-2 secretion in T cell activation, EC50 [2]: 5.21 nM
IL-2 secretion in T cell activation, Top (best-fit) [2]: 435
Kd [3]: 0.57 nM
koff [3]: 0.00035 s⁻¹
kon [3]: 610000 M⁻¹ s⁻¹
Bottom (best-fit) [4]: 150
Top (best-fit) [4]: 755
Bottom (best-fit) [5]: 2830
EC50 [5]: 2.85 nM
Top (best-fit) [5]: 29800
IC50 [6]: 1.29 nM

Next, values leading:

Bottom (best-fit) [1]: 4160
EC50 [1]: 0.58 nM
Top (best-fit) [1]: 25600
IL-2 secretion in T cell activation, Bottom (best-fit) [2]: 247
IL-2 secretion in T cell activation, EC50 [2]: 2.14 nM
IL-2 secretion in T cell activation, Top (best-fit) [2]: 419
Kd [3]: 0.17 nM
koff [3]: 0.00016 s⁻¹
kon [3]: 910000 M⁻¹ s⁻¹
Bottom (best-fit) [4]: 170
Top (best-fit) [4]: 678
Bottom (best-fit) [5]: 4880
EC50 [5]: 1.03 nM
Top (best-fit) [5]: 23700
IC50 [6]: 0.49 nM
B2: 100C4E7D11 chimeric (antibody, V domains shown)
VH: EVMLVESGGGLVKPGGSLKLSCAASGFTFSFYTMSWVRQTPEKRLEWVATISSGGGSTYYSDSVKGRFTISRDNAKNNLYLQMTSLRSEDTALYYCSRSLPVDYWGQGTTLTVSS
VL: QIVLTQSPAIMSASLGERVTMTCTASSSVSSTYLHWYQQKPGSSPKLWIYSTSNLASGVPARFSGSGSGTSYSLTISSMEAEDAATYYCHLYHHSPYTFGGGTKLEIK
notes: also called 100C4 Chimeric

Bottom (best-fit) [1]: 1530
EC50 [1]: 0.43 nM
Top (best-fit) [1]: 24700
IL-2 secretion in T cell activation, Bottom (best-fit) [2]: 209
IL-2 secretion in T cell activation, EC50 [2]: 0.63 nM
IL-2 secretion in T cell activation, Top (best-fit) [2]: 467
Kd [3]: 0.17 nM
koff [3]: 0.0001 s⁻¹
kon [3]: 630000 M⁻¹ s⁻¹
Bottom (best-fit) [4]: 201
Top (best-fit) [4]: 508
Bottom (best-fit) [5]: 5530
EC50 [5]: 0.91 nM
Top (best-fit) [5]: 29200
IC50 [6]: 0.35 nM
B4: 64G1E9B4VH1.M1_VL1.M1 (antibody, human IgG1, V domains shown)
VH: B3 VH with D56G
VL: B3 VL
notes: Humanized antibody, variable domains fused with the constant region of human IgG1; also called 64G1VH1.M1_VL1.M1

Source: patent US20210095028A1 (NANJING LEGEND BIOTECH, published 2021)
